From paper PMC4901319

Legend:
[1] = biological target: copper chaperone for SOD1 (hCCS), wild-type, zinc metalated (human) (UniProt O14618); test: SEC; reducing conditions as above but with metal apo (zinc deficient) SOD1, mixed 1:1 with Zn-hCCS; Agilent BioSEC-3, TBS with 1 mM DTT, 20 °C
[2] = biological target: copper chaperone for SOD1 (hCCS), wild-type, zinc metalated (human) (UniProt O14618); test: SEC; non-reducing time course with metal apo SOD1: SOD1 reduced and desalted into oxygen purged TBS, mixed with hCCS (copper apo/zinc holo or copper(I) loaded), incubated at 20 °C (8 minutes to 20 hours), then SEC
[3] = biological target: copper chaperone for SOD1 (hCCS), wild-type, zinc metalated (human) (UniProt O14618); test: SEC-MALS; Agilent BioSEC-3 column, 20 mM Tris-HCl, 150 mM NaCl (TBS) with 1 mM DTT, 20 °C; monomer to dimer
R163W hCCS (human) [4] = biological target: R163W hCCS (human) (UniProt O14618); test: SEC; GE Superdex 200 10/300, TBS with 1 mM DTT, 0.5 ml/min, 500 μl loaded; high concentrations (series from 26 up to 918 μM before the column); monomer to dimer
R163W hCCS (human) [5] = biological target: R163W hCCS (human) (UniProt O14618); test: SEC-MALS; Agilent BioSEC-3 column, 20 mM Tris-HCl, 150 mM NaCl (TBS) with 1 mM DTT, 20 °C; monomer to dimer

stoichiometry N [1]	stoichiometry N [2]	stoichiometry N [3]	stoichiometry N (R163W hCCS (human) [4])	stoichiometry N (R163W hCCS (human) [5])	Substance
2	2	2			copper chaperone for SOD1 (hCCS), wild-type, zinc metalated (from UniProt O14618 1-274) (natural protein)
			2	2	R163W hCCS (from UniProt O14618 1-274) (natural protein)
